Tests used:
[1] = molecular target: the molecule itself; assay: gel filtration HPLC and analytical ultracentrifugation (main population 310±10 kDa)
Method: FIG. 11. rGPBP and rGPBPΔ26 form very active high molecular weight aggregates. About 300 μg of rGPBP (A) or rGPBPΔ26 (B) were subjected to gel filtration HPLC as described under Material and Methods. Vertical arrowheads and numbers respectively indicate the elution profile and molecular mass (kDa) of the molecular weight standards used. Larger aggregates eluted in the void volume (I), and the bulk of the material present in the samples eluted in the fractionation range of the column as a second peak between the 669 and 158 kDa markers (II). Fifteen microliters of the indicated minute fractions were subjected to SDS-PAGE and Coomasie blue staining. Five microliters of the same fractions were in vitro phosphorylated as described in Materials and Methods, and the reaction stopped by boiling in SDS sample buffer. […]
Gel-filtration HPLC. […] The material was eluted from the column at 0.5 ml/min, monitored at 220 nm and minute fractions collected.
rGPBP and rGPBP-26 exist as very active high molecular weight aggregates. Gel filtration analysis of affinity-purified rGPBP or rGPBPΔ26 yielded two chromatographic peaks (I and II), both displaying higher MW than expected for the individual molecular species, as determined by SDS-PAGE studies (89 kDa and 84 kDa, respectively ) (FIG. 11). […] ATP, and analyzed by immunoblot and autoradiography.

GPpep1 = molecular target: T1, GPpep1
T1 chain: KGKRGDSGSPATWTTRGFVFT

B1: FLAG-tagged recombinant GPBPΔ26 (rGPBPΔ26) (enzyme)
chain: DYKDDDDKMSDNQSWNSSGSEEDPETESGPPVERCGVLSKWTNYIHGWQDRWVVLKNNALSYYKSEDETEYGCRGSICLSKAVITPHDFDECRFDISVNDSVWYLRAQDPDHRQQWIDAIEQHKTESGYGSESSLRRHGSMVSLVSGASGYSATSTSSFKKGHSLREKLAEMETFRDILCRQVDTLQKYFDACADAVSKDELQRDKVVEDDEDDFPTTRSDGDFLHSTNGNKEKLFPHVTPKGINGIDFKGEAITFKATTAGILATLSHCIELMVKREDSWQKRLDKETEKKRRTEEAYKNAMTELKKKSHFGGPDYEEGPNSLINEEEFFDAVEAALDRQDKIEEQSQSEKVRLHWPTSLPSGDAFSSVGTHRFVQKVEEMVQNHMTYSLQDVGGDANWQLVVEEGEMKVYRREVEENGIVLDPLKATHAVKGVTGHEVCNYFWNVDVRNDWETTIENFHVVETLADNAIIIYQTHKRVWPASQRDVLYLSVIRKIPALTENDPETWIVCNFSVDHDSAPLNNRCVRAKINVAMICQTLVSPPEGNQEISRDNILCKITYVANVNPGGWAPASVLRAVAKREYPKFLKRFTSYVQEKTAGKPILF
notes: From pHIL-FLAG-n4'Δ26 in Pichia pastoris, made by deleting the 78-bp exon from pHIL-FLAG-n4'
[1]
  binding result: binds
GPpep1
  trans-phosphorylation activity with GPpep1: the reduced in-solution auto- and trans-phosphorylation activities displayed by rGPBPΔ26

Reference: US20030054488A1 (published 2003)
